Target: Progesterone receptor isoform B (PRB) (Homo sapiens, UniProt P06401 1-933)
Assay: EMSA

Sequence of Progesterone receptor isoform B (PRB) (P06401 whole entry, canonical isoform): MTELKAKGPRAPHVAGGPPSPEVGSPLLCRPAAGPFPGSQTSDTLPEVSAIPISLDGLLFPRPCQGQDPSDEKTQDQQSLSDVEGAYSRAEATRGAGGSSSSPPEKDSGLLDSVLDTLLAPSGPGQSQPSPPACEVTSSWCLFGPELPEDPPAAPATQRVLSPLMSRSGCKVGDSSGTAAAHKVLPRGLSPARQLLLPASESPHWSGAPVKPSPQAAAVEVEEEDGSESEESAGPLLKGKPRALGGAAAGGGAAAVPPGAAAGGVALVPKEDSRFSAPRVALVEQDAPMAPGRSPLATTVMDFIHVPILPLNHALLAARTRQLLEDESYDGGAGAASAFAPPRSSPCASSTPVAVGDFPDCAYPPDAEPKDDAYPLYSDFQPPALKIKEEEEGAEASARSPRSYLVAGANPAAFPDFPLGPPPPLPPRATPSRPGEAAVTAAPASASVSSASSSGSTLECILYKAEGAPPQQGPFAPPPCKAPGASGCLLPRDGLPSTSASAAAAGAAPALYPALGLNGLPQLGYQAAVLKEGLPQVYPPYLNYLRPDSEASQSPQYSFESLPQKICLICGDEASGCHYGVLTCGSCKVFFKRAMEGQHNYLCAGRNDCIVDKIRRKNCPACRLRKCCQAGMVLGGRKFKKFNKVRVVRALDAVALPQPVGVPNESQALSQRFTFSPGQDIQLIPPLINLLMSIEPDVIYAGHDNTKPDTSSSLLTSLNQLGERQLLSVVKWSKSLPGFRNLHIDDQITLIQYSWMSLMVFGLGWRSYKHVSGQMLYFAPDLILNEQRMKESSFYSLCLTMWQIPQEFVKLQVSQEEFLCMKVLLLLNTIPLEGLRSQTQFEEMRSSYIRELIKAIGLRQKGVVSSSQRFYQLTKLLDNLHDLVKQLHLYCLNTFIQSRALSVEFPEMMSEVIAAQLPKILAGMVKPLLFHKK

B1: PRE (dsDNA)
DNA 1: GTTACAAACTGTTCT
DNA 2: AGAACAGTTTGTAAC
binding result: binds
